Reference: paper PMC8330776

What follows are substances tested against SARS-CoV-2 S trimer (SARS-CoV-2) (UniProt P0DTC2) (assay: SPR).

| Substance | Kd | koff | kon |
| --- | --- | --- | --- |
| Lentil lectin derived from Lens culinaris (natural protein) | 8.67 nM | 0.000919 s⁻¹ | 106000 M⁻¹ s⁻¹ |
| erythroagglutinin PHA-E from Phaseolus vulgaris (red kidney bean) (from UniProt P05088 22-275) (natural protein) | 160 nM | 0.00331 s⁻¹ | 20700 M⁻¹ s⁻¹ |
| lectin from Datura stramonium (jimson weed, thorn apple) (natural protein) | 0.823 nM | 0.00144 s⁻¹ | 1.75e+06 M⁻¹ s⁻¹ |
| lectin from Galanthus nivalis (snowdrop) (natural protein) | 1.53 nM | 0.00121 s⁻¹ | 792000 M⁻¹ s⁻¹ |
| leucoagglutinin PHA-L from Phaseolus vulgaris (red kidney bean) (from UniProt P05087 21-272) (natural protein) | 37.6 nM | 0.00262 s⁻¹ | 69700 M⁻¹ s⁻¹ |
| phytohaemagglutinin PHA-M from Phaseolus vulgaris (red kidney bean) (natural protein) | 2480 nM | 0.0196 s⁻¹ | 7890 M⁻¹ s⁻¹ |
| phytohaemagglutinin PHA-P from Phaseolus vulgaris (red kidney bean) (natural protein) | 32.5 nM | 0.00501 s⁻¹ | 154000 M⁻¹ s⁻¹ |
| sambucus sieboldiana lectin (natural protein) | 31.5 nM | 0.000886 s⁻¹ | 28100 M⁻¹ s⁻¹ |
| succinyl-concanavalin A (natural protein) | 201000 nM | 0.00148 s⁻¹ | 7.37 M⁻¹ s⁻¹ |
